Laboratory results reported in patent US20250339532A1 (FATE THERAPEUTICS, published 2025).

Biological target: CD38 (UniProt P28907 1-300, limits assumed)
Test: cell-based or functional assay

B1: daratumumab (antibody, V domains shown)
VH: EVQLLESGGGLVQPGGSLRLSCAVSGFTFNSFAMSWVRQAPGKGLEWVSAISGSGGGTYYADSVKGRFTISRDNSKNTLYLQMNSLRAEDTAVYFCAKDKILWFGEPVFDYWGQGTLVTVSS
VL: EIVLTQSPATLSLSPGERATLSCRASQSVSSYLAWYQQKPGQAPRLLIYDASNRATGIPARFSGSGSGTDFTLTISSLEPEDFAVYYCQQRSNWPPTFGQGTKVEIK
  fold reduction of CD38+ T cell counts in co-cultures with daratumumab against the control condition: ~15 fold
  fold reduction of CD38+ pbNK cell counts in co-cultures with daratumumab against the control condition: ~21 fold
